In the supplement of paper PMC9170038:

System: K4 kissing-loop RNA reporter
Assay: apparent KD of K4 kissing-loop reporter; higher = weaker reporter binding
Settings: Eterna round: R107
Protocol: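 RNA-MaP round R107: designed RNA switches with theophylline, tryptophan, arginine or FMN aptamers are transcribed on-chip within common flanks. They are titrated with a labelled K4 kissing-loop RNA reporter in RNA-MaP buffer (100 mM Tris pH 7.5, 80 mM KCl, 4 mM MgCl2), without ligand or with the indicated ligand. Median apparent KD per design.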

[1] = input ligand: theophylline 20 uM
[2] = input ligand: tryptophan 2.4 mM
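Also: bound reporter read as fluorescence of individual clusters on recovered sequencing chips by microscopy, with normalized cluster intensities fitted with a binding model.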

Row | Sequence | apparent KD of K4 kissing-loop reporter (input ligand: FMN 200 uM) [nM] | apparent KD of K4 kissing-loop reporter (input ligand: arginine 13.2 mM) [nM] | apparent KD of K4 kissing-loop reporter (input ligand: none) [nM] | apparent KD of K4 kissing-loop reporter [1] [nM] | apparent KD of K4 kissing-loop reporter [2] [nM]
1 | AAACCCAGUGAUGUUGGGAAUCAGUUGAGGGAGGAUAUUGGUAAUACAAGAAGGCCCGGCUGCGGGUGAUGUUCGCAUUAGGGCC [Exclusion FMN A GF17] | 160 | 157 | 152 | 154 | 140
2 | AAACGCUGUGAAUAACACAGCGAAAAUUCGCGAGGACCGGUACGGCCGCCACUCGCUAACUGCGAGUGAUGUUCGAUAAUAAAAU [Mat - Mod of OpenEnded 3 - D11] | 182 | 94.8 | 198 | 210 | 105
3 | AAACGUUGGUGCGAUACCAGCUGAUCGGAAACGAUCUUGCUGGAGUGAUGUUCCAAGUAAAGCCCUUGGCAGCGCACCGACGAAA [MAT - Same State Theophlline B - Mod of Eli - D22] | 92.5 | 58.4 | 86.5 | 145 | 69.3
4 | AAACGUUGGUGCGAUACCAGCUUGAUCGGUAAACGAUCUACUGGAGUGAUGUUCCUAAAUAGCCCUUGGCAGCGCACCGACGAAA [MAT - Same State Theophlline B - Mod of Eli - D8] | 181 | 155 | 169 | 128 | 166
5 | AAACUUGCAGUGAUGUUGCAAGUAGGUGAUACCAGCAUCGAAAGAUGCCCUUGGCAGCACCAACACUGCAAGUAAGUAUCACCAA [(H1)-(H2)-(T1)-(T2)-(H)'-(T)'_Design1] | 116 | 138 | 128 | 161 | 111
6 | AAACUUGCAGUGAUGUUGCAAGUAGGUGAUACCAGCAUCGAAAGAUGCCCUUGGCAGCACCAUCUUGCAACAAAGGUGCUGCCAA [(H1)-(H2)-(T1)-(T2)-(H)'-(T)'_Design7] | 87.5 | 77.4 | 88.2 | 67.6 | 81.2
7 | AAAGAGUCACUCGAAGCUAUCGAAGAUAGGCGAGGACCGGUACGGCCGCCACUCGGAGUGAUGUUCCGAAGACUGUAAAAUAAAA [MatMod 12 - Jieux - Exclusion - Tryptophan A] | 208 | 240 | 206 | 170 | 295
8 | AAAGCAUUGAGAAGGAGCGUGACGUGGAGUGAUGUUCCAUUGUAGUAAUAAUUACUACUAUCACAGGUAGGUCGCUCAUUGCUAA [JR_Nu_SSArginiB_Sub024] | 183 | 159 | 181 | 161 | 180
9 | AAAUAGGUGUGCGAUACCAGCCGGAGUGAUGUUCCGUGUUGUACUGGCUGCACCUACGCCGGCCCUUGGCAGCGUGCUCCAUUUA [Enonin] | 177 | 140 | 169 | 263 | 148
10 | AAAUAUUCGAGUGAUGUUCGUUAAAUUACAGAGGAUAUGCUUAAAAGCAGAAGGCUGUAUUUCUAUUUGUUAUGUAAUUUUAAAA [JR_ExcFMNA_Sub004] | 117 | 209 | 157 | 196 | 115
11 | AAAUCUUUCAGAAGGAGCGUGGAUUAUUCAUAUAUAUUUAUUACGAGUGAUGUUCGUAAUUCACAGGUAGGUCGCUGUUCAAUAA [JR_ExcArginiB_Sub005] | 117 | 116 | 113 | 116 | 102
12 | AAAUGCUUGUAUUUGAACAAUUCCUUUAGGGAGGAUAUUGGUAAUACAAGAAGGCCCUGAUGGGAGUGAUGUUCCCAUAACGCGG [Exclusion FMN A GF16] | 114 | 95 | 90.8 | 90.2 | 91.1
13 | AAAUGUUUGUAUUUGAACAAUUUCUUUAGGGAGGAUAUUGGUAAUACAAGAAGGCCCUGAUGGGAGUGAUGUUCCCAUAACGCGG [Exclusion FMN A GF15] | 46.7 | 83.9 | 74 | 87.5 | 62.1
14 | AAAUUCUUUUUUUUAUUUAAGUUUUCAGAAGGAGCGUGGUAGUACACAGGUAGGUCGCUGAAUUUUGGGCUAGUGAUGUUAGUUA [whbob_SS_Arginine_A_sa114] | 144 | 195 | 200 | 191 | 160
15 | AAAUUUAUUAUAUUUGAAUAAAUAUGUGAUACCAGACAUUUAUAAGUCCCUUGGCAGCACAAUGCAGUGAUGUUGCUUAUAAUAA [JR_SSTheophyA_Sub018] | 89 | 110 | 93 | 182 | 73.8
16 | AAAUUUUAAAGUGAUACCAGACAUCUCAAUUACAUUAAUAAAGCUAAGUGAUGUUUAGCAGUCCCUUGGCAGCACAAUUUAAUUA [JR_SSTheophyB_Sub011] | 272 | 334 | 334 | 447 | 281
17 | AACCCAUGACUGGAUACCAGACUAUACAUGCUGAGUGAUGUUUAGCGGAGUCAUCUCUCGGUCCCUUGGCAGCCAACGUCACGCG [theeternabot_sameState_KL_Theo_B_33] | 614 | 334 | 646 | 403 | 373
18 | AACCGAGGUAAUCCACAAAGAUAACAUGAUACCAGAUAUAUAAAUAUCCCUUGGCAGCAUGGCAUGAGUGAUGUUCAUGUGUCUU [KL-SSTheo-A10] | 441 | 325 | 460 | 269 | 356
19 | AACGUUUUGAGAAGGAGCGCGUUCAGCAGUGAUGUUGCUUUACUUCAAUUUCUAGAUAAUUCGCAGGUAGGUCGCUCAAUACGUA [JR_Nu_ExcArginiB_Sub023] | 503 | 511 | 615 | 706 | 527
20 | AACUUGUUUGGAGGAUAUUCUUUAUUCGACAUAACCUUCUAUAAGGUGCAGUGAUGUUGCAAUAUAGGAGAAGGUCGAGUGAGAA [Exclusion FMN B Gf 16] | 207 | 169 | 206 | 219 | 186
21 | AAGACUGCAGGAAGGAGCGGCGGACGGAGUGAUGUUCCGGCUAGUGAUGUUAGCAAACACCGCCAGGUAGGUCGCCUGUUGCUCU [Same State Arginine B GF7] | 113 | 116 | 126 | 166 | 128

Row | Sequence | apparent KD of K4 kissing-loop reporter (input ligand: FMN 200 uM) [nM] | apparent KD of K4 kissing-loop reporter (input ligand: arginine 13.2 mM) [nM] | apparent KD of K4 kissing-loop reporter (input ligand: none) [nM] | apparent KD of K4 kissing-loop reporter [1] [nM] | apparent KD of K4 kissing-loop reporter [2] [nM]
22 | AAGCAGUCACUCGUAUCCAUCGAAGAUGGUCGAGGACCGGUACGGCCGCCACUCGGAGUGAUGUUCCGAAGACUGCAAAAUAAAA [#SwitchBubble 13] | 240 | 230 | 250 | 296 | 348
23 | AAGCAUUCUUCGGAAUGCAGACCCGCUGAGGAGGAUAUGACGAAAGUCAGAAGGCCUCAGUGAUGUUGAGGCCUCCUCAAUGGUC [Omei KL FMN A Exc A v1] | 138 | 135 | 187 | 173 | 171
24 | AAGGCCACGAGAAGGAGCGUGUUGUGGAGUGAUGUUCCACUGUAGACCUAAGGUCUACAGGCACAGGUAGGUCGCUCGUGGUCAA [Omei KL Arginine B SS A v6] | 131 | 110 | 145 | 131 | 127
25 | AAGGUAUCACCAACAUUGCAAGAAGGUGAUACCAGCAUCGAAAGAUGCCCUUGGCAGCACCAACUUGCAGUGAUGUUGCAAGUAA [(T)'-(H)'-(T1)-(T2)-(H1)-(H2)_Design8] | 274 | 210 | 267 | 213 | 226
26 | AAGUAGCUCUCGGCCGCCACUCCUCAGUGAUGUUGAGAUAUUAAUUGCCAAUUGGCGUAUUUAAAGAGGACCGGGAGAGCUACAA [AK3 SS Tryptophan B] | 368 | 315 | 378 | 328 | 117
27 | AAGUCAUAGGCAGGAUAUGCAUUGUAAUAAGGCAAUAUAUACGUAUAGAGUGAUGUUUUGUACCAGGCAGAAGGGCUACAUCAGU [FMN B Excl V10 (+5A/U)] | 674 | 383 | 652 | 491 | 416
28 | AAGUGAUGUUGUAGUGAUGUUGUGAUGUUGCAGGAUAUAUAGUGAUGUAGAAGGGUAAGUACUGAUGUUGUUUGUGAGUGAUGUU [zrrszrmullin] | 99.2 | 44.9 | 78.6 | 66.9 | 76.2
29 | AAGUGAUGUUGUAGUGAUGUUGUGAUGUUGCAGGAUAUAUAGUGAUGUAGAAGGGUAUGUGCAGUGUUGUUAUUUGAGUGUUGAU [zffdmullin] | 89.7 | 41.4 | 78.7 | 73.8 | 66.9
30 | AAGUGUCAUUAGACACAGACUACAAUACACUAGGAUAUGCUGAUAAGCAGAAGGAGUGAUGUUCCUUUCAAGUAGUCAAUUAAAU [FmnAX 21 Mat Inspired #SwitchBubble #StaticStem #K4Late] | 237 | 148 | 143 | 178 | 140
31 | AAGUGUCAUUAGACACAGACUACAAUACGCUAGGAUAUGCUGAUAAGCAGAAGGAGUGAUGUUCCUUUCAAGUAGUCAAUUAAAU [FmnAX 22 Mat Inspired #SwitchBubble #StaticStem #K4Late] | 319 | 140 | 136 | 166 | 124
32 | AAGUGUGUGGCGGCCGCCACUAGAAUCCAGUGAUGUUGGAGAUAUCACGUAAGUGAUAUCCAACAUAGGACCGGGCCAUAUAGAA [Same State - Tryptophan B (Freestyle 12)] | 142 | 111 | 80.3 | 210 | 95.5
33 | AAGUUGAACUGAAGGAGCGAGAAAUAGAAUGUAAGAAUAUAUGCUAGUGAUGUUAGAAAUUCUCAGGUAGGUCGCAGUAAGUUUU [V2] | 363 | 418 | 474 | 407 | 285
34 | AAUAAAAGAUGUUUAGGAAAGCAAAUGGAAGGAGCGUGCGAAAGCACAGGUAGGUCGCCAGUGAUGUUGGCACCUGAGCAUCAAA [#SwitchBubble 18 #K4Late] | 251 | 285 | 303 | 336 | 264
35 | AAUAAAAUCACGGCCGCCACUGAAUAAUUACGAAGUAGUGAUGUUACUUCACAUAUCUUAUUUAACAGGACCGGGUGAAUAUUUA [#16 K4 Tryptophan B Exclusion] | 72.3 | 66.3 | 70.9 | 65.1 | 81.8
36 | AAUAACUAGUAUAUUUUUAAUAAUACAGAUACCAGUGAUAAUAAACACCCUUGGCAGCUGAUCGAGUGAUGUUCGUUUAUUUUAA [JR_SSTheophyA_Sub002] | 84 | 74.6 | 93.3 | 188 | 66.2
37 | AAUAAGCGCCGAAGGAGCGGCCUCCGAGUGAUGUUCGGUGAGAUGCCAGUGAUGUUGGCCGGCCAGGUAGGUCGCGGCAAAGCUU [Same State Arginine B GF 29] | 154 | 140 | 161 | 131 | 128
38 | AAUAAGUGUCAGCGAGUGAUGUUCGACGAUACCAGCCUCGAUAGAGGCCCUUGGCAGCGUAACGCAUGCCAAACUGGCACAAUAA [#SwitchBubble 7 #K4Early] | 500 | 497 | 557 | 393 | 441
39 | AAUAUAGUGAUGUUAUAUAAGAAGGAGUUACGAGGACCGGUACGGCCGCCACUCGAAACGAGUGAGGAUUUGGGAGAUUGGGUCC [SSTryptA.K] | 300 | 366 | 430 | 384 | 299
40 | AAUGCGCAGGGAAGGAGCGCCGUCCAGUGAUGUUGGAGUUAAAUACCAGUGAUGUUGGUUAGGCAGGUAGGUCGCCCUAAAGCGC [Exclusion Arginine B GF 1] | 118 | 79.9 | 92.1 | 98 | 83.8
41 | AAUGGGUGAUAAGGAUAUCCACCUCACAAACCAAGAGUGAUGUUCGUUGGUCCAUGGACAAUAUGUGGAGAAGGUAUAGUGAUUA [theeternabot_exclusion_KL_FMN_B_48] | 855 | 853 | 1000 | 747 | 700
